Assay results as given in paper PMC11044105, “Overcoming Lot-to-Lot Variability in Protein Activity Using Epitope-Specific Calibration-Free Concentration Analysis” (Analytical Chemistry, 2024).

Target: T1, ProteinA (UniProt P38507)
T1 construct: the form on the sensor is not described; Sensor-chip Protein A is probably a recombinant form; also called ProteinA sensor chip; ProteinA-CM5; source: on SPR sensor chips (ProteinA chip or ProteinA-conjugated CM5 chip)
Assay: SPR; calibration-free concentration analysis (CFCA) on Biacore T200, 1x PBST; NISTmAb 8671 as analyte over ProteinA/ProteinG sensors to assign form factors
Conditions: both partners purified

B1: NISTmAb 8671 (antibody, V domains shown)
VH: QVTLRESGPALVKPTQTLTLTCTFSGFSLSTAGMSVGWIRQPPGKALEWLADIWWDDKKHYNPSLKDRLTISKDTSKNQVVLKVTNMDPADTATYYCARDMIFNFYFDVWGQGTTVTVSS
VL: DIQMTQSPSTLSASVGDRVTITCSASSRVGYMHWYQQKPGKAPKLLIYDTSKLASGVPSRFSGSGSGTEFTLTISSLQPDDFATYYCFQGSGYPFTFGGGTKVEIK
B1: binds.
